Like-named read-outs stand apart in the source and are kept apart here.
T1: N-terminal six histidine tagged P protein of Chandipura virus (His-P) (Chandipura virus, UniProt P16380 1-293)
T1 construct: Chandipura virus phosphoprotein P, full length (pET20b-P); pET20b usually adds a C-terminal His tag (surmise); also called 6×His-P; pET20b-P; source: bacterially expressed, purified (Ni-NTA agarose); not shown: His6, N-terminal, kept
T1 sequence: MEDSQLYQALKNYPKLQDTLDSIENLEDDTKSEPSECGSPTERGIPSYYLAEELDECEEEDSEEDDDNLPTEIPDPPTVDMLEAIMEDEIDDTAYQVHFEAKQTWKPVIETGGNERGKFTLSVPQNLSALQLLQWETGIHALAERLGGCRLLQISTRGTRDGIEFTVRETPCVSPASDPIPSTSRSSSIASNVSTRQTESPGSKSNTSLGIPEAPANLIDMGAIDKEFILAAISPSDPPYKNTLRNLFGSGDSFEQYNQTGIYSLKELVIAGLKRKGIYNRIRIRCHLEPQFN

B1: Chandipura virus nucleocapsid protein (N), wild-type, untagged, bacterially expressed (natural protein)
chain: MSSQVFCISTGQTVSVCLPANEDPVEFPGAFFTPNAKKPTVYIKKETDLSLLRSHVYDGIKDGSVTVSQINSYLYMVLKDIREKPDKNWTSFGVELGKKNEPMGIFDLLNVEDVKGKELDKKGQDTRLPGDDLWLPTLIFGLYRVSRATQVEYKKTLMTNLYAQCKLRTKDAEEIVDETAEFFNAWANDSNFTKIVAAVDMYFHHFKKSDHAPIRFGTIVSRFKDCAALSTLSHLQKVTGLPIEEVFTWVFNKSVQDDLLRMMTPGQEIDQADSYMPYLIDMGLSTKSPYSSTKNPSFHFWGQLTAFLVKSARAKNALVPVDIAYHELTTAALLFAYAIGRSSELEQRFVLNGKKFTKEKDSREDNDTTPPSERNVVVWLAWWEDIKHEITPDMKAFAKRAVERVGDIRVNSVAEYARKLFA
notes: Chandipura virus nucleocapsid protein N, full-length untagged (pET3a-NC); Oligomeric (nucleocapsid-like rings) as purified; monomeric after 1% DOC; also called CHPV N; wild-type N
B2: N(1/180–265/422), bacterially expressed (domain or fragment)
chain: MSSQVFCISTGQTVSVCLPANEDPVEFPGAFFTPNAKKPTVYIKKETDLSLLRSHVYDGIKDGSVTVSQINSYLYMVLKDIREKPDKNWTSFGVELGKKNEPMGIFDLLNVEDVKGKELDKKGQDTRLPGDDLWLPTLIFGLYRVSRATQVEYKKTLMTNLYAQCKLRTKDAEEIVDETAPGQEIDQADSYMPYLIDMGLSTKSPYSSTKNPSFHFWGQLTAFLVKSARAKNALVPVDIAYHELTTAALLFAYAIGRSSELEQRFVLNGKKFTKEKDSREDNDTTPPSERNVVVWLAWWEDIKHEITPDMKAFAKRAVERVGDIRVNSVAEYARKLFA
notes: also called middle deletant; source: E. coli BL21(DE3) or BL21(DE3)pLysS, purified (anion exchange, MonoQ 5/50 GL)
B3: N(22–422), bacterially expressed (domain or fragment)
chain: EDPVEFPGAFFTPNAKKPTVYIKKETDLSLLRSHVYDGIKDGSVTVSQINSYLYMVLKDIREKPDKNWTSFGVELGKKNEPMGIFDLLNVEDVKGKELDKKGQDTRLPGDDLWLPTLIFGLYRVSRATQVEYKKTLMTNLYAQCKLRTKDAEEIVDETAEFFNAWANDSNFTKIVAAVDMYFHHFKKSDHAPIRFGTIVSRFKDCAALSTLSHLQKVTGLPIEEVFTWVFNKSVQDDLLRMMTPGQEIDQADSYMPYLIDMGLSTKSPYSSTKNPSFHFWGQLTAFLVKSARAKNALVPVDIAYHELTTAALLFAYAIGRSSELEQRFVLNGKKFTKEKDSREDNDTTPPSERNVVVWLAWWEDIKHEITPDMKAFAKRAVERVGDIRVNSVAEYARKLFA
notes: source: E. coli BL21(DE3) or BL21(DE3)pLysS, purified (anion exchange, MonoQ 5/50 GL)
B4: N(1–220), bacterially expressed (domain or fragment)
chain: MSSQVFCISTGQTVSVCLPANEDPVEFPGAFFTPNAKKPTVYIKKETDLSLLRSHVYDGIKDGSVTVSQINSYLYMVLKDIREKPDKNWTSFGVELGKKNEPMGIFDLLNVEDVKGKELDKKGQDTRLPGDDLWLPTLIFGLYRVSRATQVEYKKTLMTNLYAQCKLRTKDAEEIVDETAEFFNAWANDSNFTKIVAAVDMYFHHFKKSDHAPIRFGTIV
notes: Chandipura virus nucleocapsid protein N, residues 1-220; source: E. coli BL21(DE3) or BL21(DE3)pLysS, purified (anion exchange, MonoQ 5/50 GL)
B5: N(1–47), bacterially expressed (domain or fragment)
chain: MSSQVFCISTGQTVSVCLPANEDPVEFPGAFFTPNAKKPTVYIKKET
notes: Chandipura virus nucleocapsid protein N, residues 1-47; source: E. coli BL21(DE3) or BL21(DE3)pLysS, purified (anion exchange, MonoQ 5/50 GL)
B6: N(1–320), bacterially expressed (domain or fragment)
chain: MSSQVFCISTGQTVSVCLPANEDPVEFPGAFFTPNAKKPTVYIKKETDLSLLRSHVYDGIKDGSVTVSQINSYLYMVLKDIREKPDKNWTSFGVELGKKNEPMGIFDLLNVEDVKGKELDKKGQDTRLPGDDLWLPTLIFGLYRVSRATQVEYKKTLMTNLYAQCKLRTKDAEEIVDETAEFFNAWANDSNFTKIVAAVDMYFHHFKKSDHAPIRFGTIVSRFKDCAALSTLSHLQKVTGLPIEEVFTWVFNKSVQDDLLRMMTPGQEIDQADSYMPYLIDMGLSTKSPYSSTKNPSFHFWGQLTAFLVKSARAKNALVP
notes: Chandipura virus nucleocapsid protein N, residues 1-320; also called N(1–320)^0 (monomer after DOC treatment); source: E. coli BL21(DE3) or BL21(DE3)pLysS, purified (anion exchange, MonoQ 5/50 GL)
B7: N(1–390), bacterially expressed (domain or fragment)
chain: MSSQVFCISTGQTVSVCLPANEDPVEFPGAFFTPNAKKPTVYIKKETDLSLLRSHVYDGIKDGSVTVSQINSYLYMVLKDIREKPDKNWTSFGVELGKKNEPMGIFDLLNVEDVKGKELDKKGQDTRLPGDDLWLPTLIFGLYRVSRATQVEYKKTLMTNLYAQCKLRTKDAEEIVDETAEFFNAWANDSNFTKIVAAVDMYFHHFKKSDHAPIRFGTIVSRFKDCAALSTLSHLQKVTGLPIEEVFTWVFNKSVQDDLLRMMTPGQEIDQADSYMPYLIDMGLSTKSPYSSTKNPSFHFWGQLTAFLVKSARAKNALVPVDIAYHELTTAALLFAYAIGRSSELEQRFVLNGKKFTKEKDSREDNDTTPPSERNVVVWLAWWEDIKHEI
notes: Chandipura virus nucleocapsid protein N, residues 1-390; source: E. coli BL21(DE3) or BL21(DE3)pLysS, purified (anion exchange, MonoQ 5/50 GL)
B8: Chandipura virus phosphoprotein (P), wild-type, untagged, bacterially expressed (natural protein)
chain: MEDSQLYQALKNYPKLQDTLDSIENLEDDTKSEPSECGSPTERGIPSYYLAEELDECEEEDSEEDDDNLPTEIPDPPTVDMLEAIMEDEIDDTAYQVHFEAKQTWKPVIETGGNERGKFTLSVPQNLSALQLLQWETGIHALAERLGGCRLLQISTRGTRDGIEFTVRETPCVSPASDPIPSTSRSSSIASNVSTRQTESPGSKSNTSLGIPEAPANLIDMGAIDKEFILAAISPSDPPYKNTLRNLFGSGDSFEQYNQTGIYSLKELVIAGLKRKGIYNRIRIRCHLEPQFN
notes: Chandipura virus phosphoprotein P, wild-type (pET3a-P); also called CHPV P; pET3a-P; source: bacterially expressed, purified (Q-Sepharose anion exchange)

How the values were obtained:
[1] = target: the molecule itself; assay: SEC; each purified protein alone on Superdex-200 / S-200 (10/300), 100 mM NaCl TET buffer; oligomerization status from the elution volume
[2] = target: B8; assay: SEC; equimolar N (or N(1–320)) and P incubated 30 min at 4°C in 100 mM NaCl TET buffer, no DOC treatment (N oligomeric); S-200 (10/300); ratio by densitometry of bands; settings: both partners purified
[3] = target: the molecule itself; assay: SEC; each purified protein alone on Superdex-200 / S-200 (10/300), 100 mM NaCl TET buffer; oligomerization status from the elution volume; remark: listed apart in the source
[4] = target: T1, N-terminal six histidine tagged P …; assay: pull-down; His-tag co-elution after 1% DOC treatment of the N variants and dialysis against the binding buffer in presence of His-P (N variants monomeric); Ni-NTA agarose, eluted with 250 mM imidazole; settings: both partners purified
[5] = target: B8; assay: SEC; N (or N(1–320)) pre-treated with 1% DOC for 30 min, then DOC removed by overnight dialysis against 100 mM NaCl TET buffer with or without equimolar P; S-200 (10/300); ratio by densitometry of bands; settings: both partners purified

Binder	stoichiometry N [1]	stoichiometry N [3]	also measured
B1	~10		stoichiometry N [2]: 2 N:P (molar ratio)
B2	2	3	
B3		8	
B4		4	binding result [4]: binds
B5		3	
B6		8	stoichiometry N [5]: 1 N(1–320):P
B7		8	
B8	2		

— article PMC3317646, “Interaction of Chandipura Virus N and P Proteins: Identification of Two Mutually Exclusive Domains of N Involved in Interaction with P” (PLoS ONE, 2012)
